# Assay results published in patent US20240382586A1 (TAKIS S R L, published 2024).
# Changes are numbered by the printed parent chain. Like-named read-outs stand apart in the source and are kept apart here.
# B1: 3-12B12 (antibody, V domains shown)
# VH: EVQLQQSGAELVRPGALVKLSCKASGFNIKDYYMHWVKQRPEQGLEWIGWIDPENGNSIYDPKFQGKASITADTSFNTVNLHLSSLTSEDTAVYYCAPYYYDSTYVGTMDYWGQGTSVTVSS
# VL: QIVLTQSPAIMSASPGEKVTMTCSASSSVGYMYWYQQKPGSSPRLLIYDTSNLASGVPVRFGGSGSGTSYSLTISRMEAEDAATYYCQQWSSYPPRTFGGGTKLEIK
# B2: humanised 9-8F2-B11 (VH3VL3) (antibody, V domains shown)
# VH: QVQLVQSGAEVKKPGASVKVSCKASGFNIKETYVHWVRQAPGQGLEWMGRIDPAIGDSEYAQKFQGRVTMTRDTSISTAYMELSRLRSDDTAVYYCARTWGPFFDFWGQGTLVTVSS
# VL: DIVMTQTPLSLSVTPGQPASISCKSSQSLLHSHGNTFLHWYLQKPGQSPQVLIYKVSSRFSGVPDRFSGSGSGTDFTLKISRVEAEDVGVYYCSQSTHVPYTFGQGTKLEIK
# notes: also called 9-8F2-B11 humanised
# B3: 2-5C4 (antibody, V domains shown)
# VH: EVQLVESGGGLIQPGGSLRLSCAASGLTVSSNYMNWVRQAPGKGLEWVSVIYAGGSTFYADSVKGRFTISRDNSKNTLYLQMNSLRAEDTAFYYCARESYGMDVWGQGTTVTVSS
# VL: EIVLTQSPATLSLSPGERATLSCRASQSISSSYLAWYQQKPGQAPRLLIYGASSRATGIPDRFSGSGSGTDFTLTISRLEPEDFAVYYCQQYGSLYTFGQGTKVEIK
# B4: humanised antibody 9-7A4-C2 (antibody, V domains shown)
# VH: EVQLQQSGAEVKKPGASVKVSCKTSGYTFTEYTMYWVRQAPGQRLEWMGGINPNNGDSSYIQKFQGRVTITRDTSASTAYMELSSLRSEDTAVYYCARDGYPNSYAMDYWGQGTLVTVSS
# VL: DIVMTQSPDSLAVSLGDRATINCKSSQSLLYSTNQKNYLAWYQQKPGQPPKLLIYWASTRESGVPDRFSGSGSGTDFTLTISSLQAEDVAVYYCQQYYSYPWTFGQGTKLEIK
# notes: also called humanised 9-7A4-C2
# B5: VH1/VL1 (antibody, V domains shown)
# VH: EVQLQQSGAELVKPGASVKLSCTASGFNIKETYVHWVKQRPEQGLEWIGRIDPAIGDSEYDPKFQGKATVTADTSSNTAYLQLSRLTSEDTAVYYCARTWGPFFDFWGQGTTLTVSS
# VL: DVVMTQTPLSLPVSLGDQASISCRSSQSLVHSHGNTFLHWYLQKPGQSPKVLIYKVSSRFSGVPDRFSGSGAGTDFTLKISRVEAEDLGVYFCSQSTHVPYTFGGGTKLEIK
# notes: also called chimeric antibody 9-8F2-B11, combination VH1/VL1
# B6: 9-8F2-B11 (mouse) (antibody, V domains shown)
# VH: B5 VH
# VL: B5 VL
# B7: 2-4G1 (antibody, V domains shown)
# VH: EVQLVQSGAEVKRPGASVKVSCKASGYTFTSYGLSWVRQAPGQGLEWMGWINTYNGHTNYAQKVQGRVTLTTDTSTSTAYMELRSLRSDDTAVYYCARVESVYYGSGTCDPWGQGTLVTVSS
# VL: DIQMTQSPSSLSASVGDRVTITCRASQSISSYLNWYQQKPGKAPKLLIYIASSLQSGVPSRFSGSGSGTDFTLTISSLQPEDFATYYCHQSYSSPHTFGQGTKLEIK
# B8: 2-5D9 (antibody, V domains shown)
# VH: QVQLQESGPGLVKPSETLSLTCTVSGGSISSYYWSWIRQPPGKGLEWIGYIYYTGSTNYNPSLKSRVTISVDTSKNQFSLKLRSVTAADTAVYYCAGTYDSNLLDPWGQGTLVTVSS
# VL: DIQMTQSPSSLSASVGDRVTITCRASQGISNSLAWYQQKPGKAPKLLLYDVFRFESGVPSRFSGSGSGTDYTLTISSLQPDDFATYYCQQYYSTPYTFGQGTKVEIK
# B9: 2-5F8 (antibody, V domains shown)
# VH: QVQLVQSGAEVKKPGASVKVSCKASGYTFTNYYMHWVRQAPGQGLEWMGVINPSGASTSYAQKFQGRVTMTRDTSTSTVYMELSSLRSEDTAVYYCASWGGNIPLYYYYGMDVWGQGTTVTVSS
# VL: QSALTQPPSASGSPGQSVTISCTGTSSDVGGYNYVSWYQQHPGKAPKLMIYEVSKRPSGVPDRFSGSKAGNTASLTVSGLQAEDEADYYCTSYAGSNIWVFGGGTKLTVL
# B10: 9-2H7-D7 chimera (antibody, V domains shown)
# VH: EVQLQQSGPELVKPGASVTISCKTSGYTFTEYTMYWVKQSHGKSLEWIGGINPYIGDTSYNQNFKGKATLTVDKSSSTAYMELRSLTSEDSAVYYCARDGYPDYSAMDFWGQGTSVTVSS
# VL: DIVMSQSPSSLAVSVGEKVTMNCKSSQNLLYSSNQKNYLAWYQQKPGQSPKLLIYWASTRESGVPDRFTGSGSGTDFTLTISSVKAEDLAVYSCQQYYTYPWTFGGGTKLEIK
# B11: 9-7A4-C2 (mouse) (antibody, V domains shown)
# VH: EVQLQQSGPELVKPGASVKISCKTSGYTFTEYTMYWVKQSHGKSLEWIGGINPNNGDSSYIQKFKGKATLTVDESSSTAYMELRSLTSEDSAVYYCARDGYPNSYAMDYWGQGTSVTVSS
# VL: B10 VL with E17D, N22S, N28S, S33T, S82G, K85R, A86P, S93Y, T99S
# B12: 9-7A4 (antibody, V domains shown)
# VH: B11 VH
# VL: B10 VL with E17D, N22S, N28S, S33T, S82G, K85R, A86P, S93Y, T99S
# B13: 9-2H7-D7 (mouse) (antibody, V domains shown)
# VH: B10 VH
# VL: B10 VL
# B14: humanised antibody 9-2H7-D7 (antibody, V domains shown)
# VH: QVQLQQSGAEVKKPGASVKISCKTSGYTFTEYTMYWVKQSHGKSLEWMGGINPYIGDTSYNQNFKGRVTMTRDKSTSTAYMELSSLTSEDSAVYYCARDGYPDYSAMDFWGQGTSVTVSS
# VL: B10 VL with S5T, K18R, M21I, Q35N, T69S, K85Q, L89V
# notes: also called humanised 9-2H7-D7
# B15: 9-2H7 (antibody, V domains shown)
# VH: B10 VH
# VL: B10 VL
# Tests used:
# [1] = biological target: SARS-CoV-2 spike receptor-binding domain (RBD), recombinant (SARS-CoV-2, UniProt P0DTC2 319-541); assay: SPR, Carterra LSA
# [2] = biological target: T1, SARS-CoV-2 spike receptor-binding domain, wild type (RBD-6×His) (SARS-CoV-2, UniProt P0DTC2 319-541)
# [3] = biological target: T1, SARS-CoV-2 spike receptor-binding …; remark: listed apart in the source
# [4] = biological target: T2, SARS-CoV-2 spike receptor-binding domain (RBD), recombinant (SARS-CoV-2, UniProt P0DTC2 319-541); assay: SPR, Carterra LSA; remark: listed apart in the source
# [5] = biological target: T2, SARS-CoV-2 spike receptor-binding …; assay: ELISA on RBD
# [6] = biological target: RBD-6×His protein, RBD WT of the SARS-CoV-2 spike protein (SARS-CoV-2, UniProt P0DTC2 319-541); assay: ELISA on recombinant RBD
# [7] = biological target: T1, SARS-CoV-2 spike receptor-binding …; remark: listed apart in the source
# [8] = biological target: T3, full-length spike protein (coated in ELISA) (SARS-CoV-2, UniProt P0DTC2 16-1213)
# [9] = biological target: T1, SARS-CoV-2 spike receptor-binding …; assay: ELISA, coated RBD-6His
# [10] = biological target: T1, SARS-CoV-2 spike receptor-binding …; remark: listed apart in the source
# [11] = biological target: T1, SARS-CoV-2 spike receptor-binding …; remark: listed apart in the source
# [12] = biological target: RBD fragment of the SARS-CoV-2 spike protein (RBD WT), recombinant (SARS-CoV-2, UniProt P0DTC2 319-541); assay: SPR Carterra LSA
# [13] = biological target: T1, SARS-CoV-2 spike receptor-binding …; remark: listed apart in the source
# [14] = biological target: T3, full-length spike protein (coated in …); remark: listed apart in the source
binder,measurement,setting,value
B1,Kd,[1],0.0165 nM
B2,Kd,[2],2.26 nM
same,EC50 (read off the curve),[3],~0.01 µg/mL
B3,Kd,[4],0.026 nM
same,A(405 nm),[5],2.26
B4,binding result,[6],binds
B5,EC50 (read off the curve),[7],~0.1 µg/mL
B6,IC50,[8],0.0037 µg/mL
same,IC50,[9],0.0137 µg/mL
same,Kd,[10],0.913 nM
B7,Kd,[4],14.4 nM
same,A(405 nm),[5],2.08
B8,Kd,[4],0.544 nM
same,A(405 nm),[5],3.49
B9,Kd,[4],1.5 nM
same,A(405 nm),[5],3.48
B10,EC50 (read off the curve),[11],~0.05 µg/mL
B11,IC50,[8],0.0027 µg/mL
same,IC50,[9],0.0133 µg/mL
same,Kd,[10],0.643 nM
B12,Kd,[12],0.735 nM
B13,Kd,[13],0.0515 nM
same,IC50,[14],0.0046 µg/mL
same,IC50,[9],0.0269 µg/mL
B14,binding result,[6],binds
B15,Kd,[12],0.00977 nM
